In paper PMC2874613 (Traffic (Copenhagen, Denmark), 2010):

T1: GST-[1-313]GGA3 (UniProt Q9NZ52 1-313)
T1 sequence (looked up): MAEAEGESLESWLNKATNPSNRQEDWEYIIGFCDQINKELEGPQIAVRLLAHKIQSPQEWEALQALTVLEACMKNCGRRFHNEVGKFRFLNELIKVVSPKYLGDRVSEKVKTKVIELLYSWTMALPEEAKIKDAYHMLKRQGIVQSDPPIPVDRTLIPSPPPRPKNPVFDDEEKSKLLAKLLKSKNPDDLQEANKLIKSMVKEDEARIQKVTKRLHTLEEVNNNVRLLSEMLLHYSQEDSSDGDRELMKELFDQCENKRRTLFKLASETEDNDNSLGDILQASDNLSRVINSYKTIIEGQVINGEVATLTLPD

B1: Arf1 expressed in HEK293T cells (human Arf1/pcDNA3.1) (natural protein)
chain: not shown
B2: Arf1-GFP expressed in HEK293T cells (human Arf1/pEGFPN1) (natural protein)
chain: not shown
B3: Arf1-HA expressed in HEK293T cells (natural protein)
chain: not shown

These binders were tested against T1, GST-[1-313]GGA3 (assay: pull-down).

First: B1
Second: B2
The “percent of total Arf precipitated with GST-[1-313]GGA3” value of the first is lower: < 0.15 % of the total for the first, > 0.3 % of the total for the second.

B3 was tested, and the “percent of total Arf precipitated with GST-[1-313]GGA3” value was < 0.15 % of the total.
